Consider one molecule from PMC4674680, “An in cellulo-derived structure of PAK4 in complex with its inhibitor Inka1” (Nature Communications, 2015).

The target in test [1] is T1, PAK4cat (Homo sapiens, UniProt O96013).
T1 construct: PAK1 (1–545) and PAK4 (286–591), respectively; 6His (N); made in house; host or cells: Escherichia coli BL21-CodonPlus(DE3)
Put plainly: In-vitro kinase assay, PAK4cat (phosphorylation of GST-Raf13). The class given is biochemical. Particulars: in vitro. How it is done: Purified PAK1 or PAK4 (50 nM in 25–50 μl) were incubated with 10 μM GST-Raf1S338 peptide in 10 μM ATP (2 μCi of γ32P ATP) of kinase buffer (25 mM HEPES, pH 7.3, 0.1% Triton X-100, 50 mM KCl, 10 mM MgCl2, 1 mM dithiothreitol) at 30 °C for 20 min. Samples were analysed by SDS–PAGE or adsorption of the GST substrate mix onto polyvinylidene difluoride membranes, followed by extensive washing to remove free γ32P-ATP. The synthetic peptides of 95% purity, as determined by HPLC and mass spectrometric analyses (GenScript), were soluble in aqueous PBS. Stock solutions (10 mM) were quantified via calculated extinction coefficients and absorbance measurements at 280 nm and stored at −80 °C. The diluted peptides were incubated at the indicated concentrations with the kinase on ice (10 min) before addition of γ32P ATP and subsequent incubation at 30 °C. The synthetic peptide array (Jerini Biotools) was phosphorylated in situ as described previously.

Test [2] deals with PAK4. The test is described as follows: Co-immunoprecipitation of HA-Inka1 by FLAG-tagged PAK4 constructs. In kind it is binding, human. The conditions noted are these: Fig. 1b; mammalian cells; PAK4* = RR48/49AE. How it is done: Transfection of cell culture and immunoprecipitation
Monkey COS-7 cells, human HEK293 and U2OS were grown in DMEM medium with 4,500 mg l^−1 glucose supplemented with 10% bovine calf serum (Hyclone). HeLa cells were grown in Eagle's MEM medium supplemented with L-glutamine, sodium bicarbonate, sodium pyruvate and 10% bovine calf serum. Transient transfections were performed with Lipofectamine 2000 according to recommended protocols. Typically, a total of 5 μg plasmid DNA was used per 60-mm dish; lysates were harvested 18 h later in ice-cold lysis buffer (0.5 ml; 25 mM HEPES, pH 7.3, 100 mM KCl, 5 mM MgCl2, 20 mM β-glycerophosphate, 5% glycerol, 0.5% Triton X-100, 5 mM dithiothreitol, 0.5 mM phenylmethyl sulfonyl fluoride, 1 mM Na3VO4 and 1 × protease inhibitor cocktail (Roche)). To test co-immunoprecipitation of proteins, the lysates were clarified by centrifugation (14,000g) and the clarified lysates were incubated while rolling (2 h) with 20 μl M2 anti-Flag Sepharose (Sigma-Aldrich, A2220). Rabbit anti-Flag (Sigma-Aldrich, F7425) or horseradish peroxidase-coupled anti-HA (Santa Cruz Biotechnology, sc-7392 HRP, 1 μg ml^−1) were used for western blot analysis.

T1 sequence (O96013 286-591): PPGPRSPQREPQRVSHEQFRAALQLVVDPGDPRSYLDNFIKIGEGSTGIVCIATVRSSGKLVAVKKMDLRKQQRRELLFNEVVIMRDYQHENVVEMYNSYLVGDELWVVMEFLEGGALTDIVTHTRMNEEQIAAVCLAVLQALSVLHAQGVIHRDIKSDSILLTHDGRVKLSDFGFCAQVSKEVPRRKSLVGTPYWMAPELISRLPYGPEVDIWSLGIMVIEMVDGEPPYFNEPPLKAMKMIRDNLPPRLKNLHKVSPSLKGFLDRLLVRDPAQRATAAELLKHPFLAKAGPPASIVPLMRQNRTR

B1: Inka1: endogenous PAK4 inhibitor, 30-kDa neural crest enriched protein (protein, UniProt Q96EL1 1-287, looked up)
PAK4-inhibitor INKA1: MDMHSARLDSFLSQLRWELLCGRDTGSPSMPGPLQPTSQTGPDVQPSHQLRASGALEEDSVCCVEEEEEEEEEAVVTEDRDAALGGPREHALDWDSGFSEVSGSTWREEELPVSQRPAPSAQPLRRQCLSVSGLPMPSRAPVASVPPVHHPRPKSTPDACLEHWQGLEAEDWTAALLNRGRSRQPLVLGDNCFADLVHNWMELPETGSEGGDGGGHRARARPPQFLLGLSEQLRRRLARARRTAMAGKRLSCPPRPEPELPADVSRFAALMSCRSRQPIICNDVSYL
As to B1, in test [1], the “Affinity relative to AID or iBox-C, in words” value was “much higher affinity than the corresponding AID”. The “Binding to activated PAK4* (mutated AID) versus wild-type PAK4, in words” value in test [2] is reported as “significantly better than wild-type PAK4”.
